Assay [1] has as its target T1, chimeric protein rhVEGFR-1/Fc (human, UniProt P17948 27-758).
T1 construct: extracellular domain;domain: Fc region; Bought from R&D Systems; also called sVEGFR-1/Fc; not shown: Fc region of human immunoglobulins
In words: Western blotting.

Assay [2] addresses T2, sVEGFR-1 (soluble VEGFR-1) (Homo sapiens (Human), UniProt P17948 27-656).
T2 construct: Bought from RELIATech; also called soluble form of VEGFR-1
In words: ELISA on plates coated with a soluble form of VEGFR-1. A general note: An ELISA detects its analyte on a solid surface through an enzyme-linked reagent.

T1 sequence (P17948 27-758, stated change not applied): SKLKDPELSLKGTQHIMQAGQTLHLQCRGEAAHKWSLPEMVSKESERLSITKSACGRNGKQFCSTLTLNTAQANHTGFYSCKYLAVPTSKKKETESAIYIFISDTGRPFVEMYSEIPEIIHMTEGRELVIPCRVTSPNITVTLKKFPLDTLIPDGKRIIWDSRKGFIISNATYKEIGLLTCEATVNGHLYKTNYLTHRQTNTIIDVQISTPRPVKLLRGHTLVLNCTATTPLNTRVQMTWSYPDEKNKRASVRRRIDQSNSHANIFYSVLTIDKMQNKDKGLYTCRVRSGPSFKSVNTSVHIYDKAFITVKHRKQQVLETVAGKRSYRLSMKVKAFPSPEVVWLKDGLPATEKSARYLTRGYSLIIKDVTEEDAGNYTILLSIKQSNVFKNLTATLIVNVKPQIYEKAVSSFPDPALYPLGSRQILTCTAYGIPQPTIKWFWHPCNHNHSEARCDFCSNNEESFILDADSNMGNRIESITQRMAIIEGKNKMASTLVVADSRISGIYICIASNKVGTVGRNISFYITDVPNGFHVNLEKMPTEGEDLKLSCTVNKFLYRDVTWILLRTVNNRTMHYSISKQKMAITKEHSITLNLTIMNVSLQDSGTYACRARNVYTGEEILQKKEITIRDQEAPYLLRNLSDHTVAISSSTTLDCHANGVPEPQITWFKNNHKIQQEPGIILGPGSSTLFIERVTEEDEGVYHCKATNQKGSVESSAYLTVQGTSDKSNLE
T2 sequence (P17948 other isoform, or with tags, fused parts or gaps limits assumed): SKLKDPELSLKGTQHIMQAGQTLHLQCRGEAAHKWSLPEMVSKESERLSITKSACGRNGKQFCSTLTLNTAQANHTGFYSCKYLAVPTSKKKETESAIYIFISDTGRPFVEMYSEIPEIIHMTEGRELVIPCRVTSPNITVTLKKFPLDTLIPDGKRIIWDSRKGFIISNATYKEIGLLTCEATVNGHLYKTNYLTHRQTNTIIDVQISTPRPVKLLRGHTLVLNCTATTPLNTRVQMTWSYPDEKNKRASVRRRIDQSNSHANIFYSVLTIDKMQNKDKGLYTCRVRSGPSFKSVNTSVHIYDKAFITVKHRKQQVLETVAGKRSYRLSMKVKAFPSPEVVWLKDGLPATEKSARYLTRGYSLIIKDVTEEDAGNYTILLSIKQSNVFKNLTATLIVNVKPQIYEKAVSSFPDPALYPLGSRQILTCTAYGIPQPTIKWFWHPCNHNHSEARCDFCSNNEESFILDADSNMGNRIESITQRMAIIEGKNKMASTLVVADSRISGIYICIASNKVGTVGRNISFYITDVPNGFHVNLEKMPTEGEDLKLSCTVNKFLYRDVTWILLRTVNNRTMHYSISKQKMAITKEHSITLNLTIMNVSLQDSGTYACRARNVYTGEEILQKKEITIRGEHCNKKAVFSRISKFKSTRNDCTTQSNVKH

B1: monoclonal antibody D16F7 (antibody, V domains shown)
VH: QVQLQQPGSELVRPGASVKLSCKASGYIFTNYWMHWVKQRPGQGLEWIGEIYPRNGNTNYDEKFKGKATLTIDTSSSTAYMQLSSLTSEDSAVYYCATYLGDYWGQGTTLTVSS
VL: DVLMTQTPLSLPVSLGDQASISCRSSQSIVHSNGNTYLEWFLQKPGQSPKLLIYKVSNRFSGIPDRFSGSGSGTDFTLKISRVEAEDLGVYFCFQGSHVPYTFGGGTKLEIK
notes: Mouse IgG1 from a hybridoma (BALB/c mice immunized with peptide A4 as a MAP); also called D16F7 mAb; mAbD16F7
For B1, the binding result in assay [1] and in assay [2] was “binds” throughout.
